In publication PMC314469, “Protein Interaction Networks by Proteome Peptide Scanning” (PLoS Biology, 2004) one finds normalised SPOT signal, Boehringer light units (BLU); mean over the file's lines of this peptide data, which are given here for 54 molecules.

The chains are these.
T1: Abp1 SH3 (ABP1_YEAST), P15891
T1 chain: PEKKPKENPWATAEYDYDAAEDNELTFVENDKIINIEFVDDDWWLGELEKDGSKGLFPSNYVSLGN

In the assay the target is T1, Abp1 SH3 (ABP1_YEAST), P15891. Briefly: SPOT array.
Consider FNGNSRLMMIPKKP [YDL073W 594-607], for which the normalised SPOT signal, Boehringer light units (BLU); mean over the file's lines of this peptide came out at 4150.

Regarding FINVSHSPLVPKP [YHR034C 60-72], the normalised SPOT signal, Boehringer light units (BLU); mean over the file's lines of this peptide stood at 76.6.

As to FVFFKSLPDLPKP [YML104C 41-53], the normalised SPOT signal, Boehringer light units (BLU); mean over the file's lines of this peptide came out at 196.

Turning to FLNDVEEEESPVKP [YLL021W 576-589], the normalised SPOT signal, Boehringer light units (BLU); mean over the file's lines of this peptide was found to be 123.

GAGILAMPYAFKP [YER119C 18-30] displayed a normalised SPOT signal, Boehringer light units (BLU); mean over the file's lines of this peptide of 62.2.

Turning to FQLPTRLPAFERP [YDL150W 307-319], the normalised SPOT signal, Boehringer light units (BLU); mean over the file's lines of this peptide worked out at 353.

FSEKPEETPNPLKP [YKL077W 64-77] registered a normalised SPOT signal, Boehringer light units (BLU); mean over the file's lines of this peptide of 170.

Take GDKYQVDPKTSKP [YLR454W 1837-1849]: the normalised SPOT signal, Boehringer light units (BLU); mean over the file's lines of this peptide is 51.2.

Molecule FTNLQAKPLVGKP [YAR002W 429-441] gave a normalised SPOT signal, Boehringer light units (BLU); mean over the file's lines of this peptide of 4290.

Molecule FSHTGLTSFTPERP [YOL138C 597-610] displayed a normalised SPOT signal, Boehringer light units (BLU); mean over the file's lines of this peptide of 92.

As for FQFLNNTPKMLKP [YLR190W 87-99], the normalised SPOT signal, Boehringer light units (BLU); mean over the file's lines of this peptide stood at 246.

FVYPFIRRYTPLKP [YKR093W 407-420]: the normalised SPOT signal, Boehringer light units (BLU); mean over the file's lines of this peptide came out at 125.

Molecule FKVMVANPRKSKP [YKL189W 299-311] gave a normalised SPOT signal, Boehringer light units (BLU); mean over the file's lines of this peptide of 2270.

For FNVPSQKPLNSKP [YHR103W 279-291], the normalised SPOT signal, Boehringer light units (BLU); mean over the file's lines of this peptide turned out to be 955.

FSGVTNQPSPIRP [YER129W 662-674]: the normalised SPOT signal, Boehringer light units (BLU); mean over the file's lines of this peptide was determined as 67.2.

FTYAYVSPTKLKP [YGL140C 277-289] yielded a normalised SPOT signal, Boehringer light units (BLU); mean over the file's lines of this peptide of 170.

The molecule FSVLIYESLDPDRP [YIR032C 164-177] yielded a normalised SPOT signal, Boehringer light units (BLU); mean over the file's lines of this peptide of 143.

The molecule FLHGNTNAPTPLRP [YPR099C 84-97] came in with a normalised SPOT signal, Boehringer light units (BLU); mean over the file's lines of this peptide of 63.

Regarding FLDVLKIKPLPYKP [YER093C 581-594], the normalised SPOT signal, Boehringer light units (BLU); mean over the file's lines of this peptide came out at 316.

In turn, FPDWSMGPNSAKP [YPL089C 527-539] yielded a normalised SPOT signal, Boehringer light units (BLU); mean over the file's lines of this peptide of 238.

FTDNSLLPSLIKP [YOR317W 178-190] returned a normalised SPOT signal, Boehringer light units (BLU); mean over the file's lines of this peptide of 217.

FSDKNTIPPNEKP [YPR022C 372-384] returned a normalised SPOT signal, Boehringer light units (BLU); mean over the file's lines of this peptide of 147.

FRGDYGNNISPERP [YAL017W 277-290]: the normalised SPOT signal, Boehringer light units (BLU); mean over the file's lines of this peptide was determined as 106.

GDAFQDVEGKPLRP [YOR229W 116-129] gave a normalised SPOT signal, Boehringer light units (BLU); mean over the file's lines of this peptide of 51.6.

In turn, FPPNEAPMLSPQRP [YLR006C 159-172] gave a normalised SPOT signal, Boehringer light units (BLU); mean over the file's lines of this peptide of 35.

Molecule FREPERKTSVPVRP [YIL156W 221-234] returned a normalised SPOT signal, Boehringer light units (BLU); mean over the file's lines of this peptide of 773.

As for FYYWLGVPSFQRP [YHR171W 136-148], the normalised SPOT signal, Boehringer light units (BLU); mean over the file's lines of this peptide was determined as 97.

On to FIQQMMDPSKAKP [YPL082C 1249-1261], for which the normalised SPOT signal, Boehringer light units (BLU); mean over the file's lines of this peptide is 230.

Regarding GDLGKEFGTTPEKP [YPL231W 188-201], the normalised SPOT signal, Boehringer light units (BLU); mean over the file's lines of this peptide was determined as 121.

GAGVLAMPFAFKP [YBL089W 68-80] yielded a normalised SPOT signal, Boehringer light units (BLU); mean over the file's lines of this peptide of 79.6.

Consider GATTLKPATLPAKP [YIL038C 384-397], for which the normalised SPOT signal, Boehringer light units (BLU); mean over the file's lines of this peptide stood at 160.

Turning to GASTIPASNNPSKP [YIL130W 103-116], the normalised SPOT signal, Boehringer light units (BLU); mean over the file's lines of this peptide came out at 90.9.

Molecule GALLDEAPEHPRP [YNL314W 80-92] returned a normalised SPOT signal, Boehringer light units (BLU); mean over the file's lines of this peptide of 82.3.

Regarding FYILDKFPLEIRP [YLL018C 442-454], the normalised SPOT signal, Boehringer light units (BLU); mean over the file's lines of this peptide was determined as 20.

FQVVLDTPQGLKP [YFR037C 187-199] yielded a normalised SPOT signal, Boehringer light units (BLU); mean over the file's lines of this peptide of 103.

GATFAVKEFRPRKP [YOR267C 238-251] had a normalised SPOT signal, Boehringer light units (BLU); mean over the file's lines of this peptide of 1130.

As for FQLIYFFPDLIKP [YOL107W 265-277], the normalised SPOT signal, Boehringer light units (BLU); mean over the file's lines of this peptide was 28.8.

FKRAGLIPIRLRP [YDR072C 45-57] had a normalised SPOT signal, Boehringer light units (BLU); mean over the file's lines of this peptide of 411.

FNTPVDSPSVSRP [YER040W 639-651]: the normalised SPOT signal, Boehringer light units (BLU); mean over the file's lines of this peptide was found to be 94.4.

The molecule GEEHEPVVEIPKRP [YDR342C 45-58] showed a normalised SPOT signal, Boehringer light units (BLU); mean over the file's lines of this peptide of 70.9.

Turning to FKRSIGASHAPLKP [YER161C 100-113], the normalised SPOT signal, Boehringer light units (BLU); mean over the file's lines of this peptide came to 145.

In turn, FSAAEIWPTKGKP [YMR228W 229-241] returned a normalised SPOT signal, Boehringer light units (BLU); mean over the file's lines of this peptide of 158.

As for FNVQDVRPDLFRP [YDR080W 297-309], the normalised SPOT signal, Boehringer light units (BLU); mean over the file's lines of this peptide was found to be 100.

FIDPSLRPIIVKP [YPR056W 253-265] had a normalised SPOT signal, Boehringer light units (BLU); mean over the file's lines of this peptide of 10.5.

As to FNKTRFVPGSNKP [YPL272C 132-144], the normalised SPOT signal, Boehringer light units (BLU); mean over the file's lines of this peptide amounted to 831.

GSNATADVSPPKKP [YDL118W 75-88]: the normalised SPOT signal, Boehringer light units (BLU); mean over the file's lines of this peptide was determined as 67.3.

As to FWKSLYPELTPYKP [YKR051W 189-202], the normalised SPOT signal, Boehringer light units (BLU); mean over the file's lines of this peptide is 97.4.

In turn, FSGSLKLPNSPRP [YGL135W 49-61] gave a normalised SPOT signal, Boehringer light units (BLU); mean over the file's lines of this peptide of 478.

Turning to GDTVYIVHWEPSKP [YIL154C 237-250], the normalised SPOT signal, Boehringer light units (BLU); mean over the file's lines of this peptide came to 48.

Molecule GDEGNRNITAPPRP [YHR031C 65-78] gave a normalised SPOT signal, Boehringer light units (BLU); mean over the file's lines of this peptide of 77.6.

As to FSLMFNTSRLPGKP [YML042W 214-227], the normalised SPOT signal, Boehringer light units (BLU); mean over the file's lines of this peptide was 2180.

Molecule FLSIHFPTDYPFKP [YBR082C 52-65] registered a normalised SPOT signal, Boehringer light units (BLU); mean over the file's lines of this peptide of 95.8.

GDELSQGPNVLKP [YDR305C 168-180] gave a normalised SPOT signal, Boehringer light units (BLU); mean over the file's lines of this peptide of 67.5.

As to GDHLQNDPLSLRP [YOR316C 398-410], the normalised SPOT signal, Boehringer light units (BLU); mean over the file's lines of this peptide was determined as 78.1.
